Experiments:
Aβ1-42 protofibrils [1] = biological target: T1, Aβ1-42 protofibrils (UniProt P05067 672-713); experiment: inhibition ELISA: antibody pre-incubated in solution with Aβ protofibrils, then transferred to Aβ coated plates; BAN2401 is the reference
T1 construct: domain: Aβ1-42; Aβ numbering is not APP numbering; also called Aβ protofibrils; Aβ-protofibrils
Procedure: (§1) The binding characteristics towards Aβ protofibrils and Aβ monomers of the antibodies of the invention compared to BAN2401 were analyzed using an inhibition ELISA in which antibodies were pre-incubated in solution with Aβ protofibrils or Aβ monomers and then transferred to Aβ coated ELISA plates, as described in Tucker et. al. J Alzheimers Dis. 2015; 43(2):575-88. doi: 10.3233/JAD-140741. PubMed PMID: 25096615, and references cited therein.

Aβ1-40 monomers = biological target: T2, Aβ1-40 monomers (UniProt P05067 672-711); experiment: inhibition ELISA: antibody pre-incubated in solution with Aβ monomers, then transferred to Aβ coated plates
T2 construct: domain: Aβ1-40; Aβ numbering is not APP numbering; also called Aβ monomers; Aβ monomer
T2 sequence (P05067 672-711 limits assumed): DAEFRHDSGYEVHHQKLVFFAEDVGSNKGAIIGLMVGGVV
Procedure: as §1

Aβ1-42 protofibrils [2] = biological target: T1, Aβ1-42 protofibrils; experiment: inhibition ELISA: antibody pre-incubated in solution with Aβ protofibrils, then transferred to Aβ coated plates
Procedure: as §1

T1 sequence (P05067 672-713 limits assumed): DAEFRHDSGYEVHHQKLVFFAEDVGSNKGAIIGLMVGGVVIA

Row | binding result (Aβ1-42 protofibrils [1]) | binding result (Aβ1-40 monomers) | binding result (Aβ1-42 protofibrils [2]) | Binder
1 | – | binds | binds | A17D/R79T_DI 5 (antibody, human IgG1, kappa, also called deimmunized variant 5 of A17D/R79T) heavy: not shown light: DVVMTQSPLSLPVTPGDPASVSCRSSQSIVHSNGNTYLEWYLQKPGQSPKLLIYKVSNRFSGVPDRFSGSGSGTDFTLTIQRVEAEDVGIYYCFQGSHVPPTFGPGTKLEIKRTVAAPSVFIFPPSDEQLKSGTASVVCLLNNFYPREAKVQWKVDNALQSGNSQESVTEQDSKDSTYSLSSTLTLSKADYEKHKVYACEVTHQGLSSPVTKSFNRGEC
2 | – | binds | binds | A17D/R79T_DI 2 (antibody, human IgG1, kappa, also called deimmunized variant 2 of A17D/R79T) heavy: not shown light: DVVMTQSPLSLPVTPGDPASVSCRSSQSIVHSNGNTYLEWYLQKPGQSPKLLIYKVSNRFSGVPDRFSGSGSGTDFTLTISRVDAEDVGIYYCFQGSHVPPTFGPGTKLEIKRTVAAPSVFIFPPSDEQLKSGTASVVCLLNNFYPREAKVQWKVDNALQSGNSQESVTEQDSKDSTYSLSSTLTLSKADYEKHKVYACEVTHQGLSSPVTKSFNRGEC
3 | – | binds | binds | A17D/R82S (antibody, human IgG1, kappa, V domains shown) VH: EVQLVESGGGLVQPGGSLRLSCSASGFTFSSFGMHWVRQAPGKGLEWVAYISSGSSTIYYGDTVKGRFTISRDNAKNSLFLQMSSLRAEDTAVYYCAREGGYYYGRSYYTMDYWGQGTTVTVSS VL: DVVMTQSPLSLPVTPGDPASISCRSSQSIVHSNGNTYLEWYLQKPGQSPKLLIYKVSNRFSGVPDRFSGSGSGTDFTLRISSVEAEDVGIYYCFQGSHVPPTFGPGTKLEIKR
4 | – | binds | binds | A17D/R79T_DI 4 (antibody, human IgG1, kappa, also called deimmunized variant 4 of A17D/R79T) heavy: not shown light: DVVMTQSPLSLPATPGDPASISCRSSQSIVHSNGNTYLEWYLQKPGQSPKLLIYKVSNRFSGVPDRFSGSGSGTDFTLTISRVDAEDVGIYYCFQGSHVPPTFGPGTKLEIKRTVAAPSVFIFPPSDEQLKSGTASVVCLLNNFYPREAKVQWKVDNALQSGNSQESVTEQDSKDSTYSLSSTLTLSKADYEKHKVYACEVTHQGLSSPVTKSFNRGEC
5 | – | binds | binds | A17D/R79T/R82S (antibody, human IgG1, kappa, V domains shown) VH: EVQLVESGGGLVQPGGSLRLSCSASGFTFSSFGMHWVRQAPGKGLEWVAYISSGSSTIYYGDTVKGRFTISRDNAKNSLFLQMSSLRAEDTAVYYCAREGGYYYGRSYYTMDYWGQGTTVTVSS VL: DVVMTQSPLSLPVTPGDPASISCRSSQSIVHSNGNTYLEWYLQKPGQSPKLLIYKVSNRFSGVPDRFSGSGSGTDFTLTISSVEAEDVGIYYCFQGSHVPPTFGPGTKLEIKR
6 | – | binds | binds | A17D/R79T_DI 6 (antibody, human IgG1, kappa, also called deimmunized variant 6 of A17D/R79T) heavy: not shown light: DVVMTQSPLSLPVTPGDPASVSCRSSQSIVHSNGNTYLEWYLQKPGQSPKLLIYKVSNRFSGVPDRFSGSGSGTDFTLTISRVDAEDVGIYYCFQGSHVPPTFGPGTKLEIKRTVAAPSVFIFPPSDEQLKSGTASVVCLLNNFYPREAKVQWKVDNALQSGNSQESVTEQDSKDSTYSLSSTLTLSKADYEKHKVYACEVTHQGLSSPVTKSFNRGEC

The remaining lines, values behind:

Row | Binder | binding result (Aβ1-42 protofibrils [1]) | binding result (Aβ1-40 monomers) | binding result (Aβ1-42 protofibrils [2])
7 | BAN2401 (antibody, V domains shown, also called humanized version of mAb158) VH: EVQLVESGGGLVQPGGSLRLSCSASGFTFSSFGMHWVRQAPGKGLEWVAYISSGSSTIYYGDTVKGRFTISRDNAKNSLFLQMSSLRAEDTAVYYCAREGGYYYGRSYYTMDYWGQGTTVTVSS VL: DVVMTQSPLSLPVTPGAPASISCRSSQSIVHSNGNTYLEWYLQKPGQSPKLLIYKVSNRFSGVPDRFSGSGSGTDFTLRISRVEAEDVGIYYCFQGSHVPPTFGPGTKLEIK | binds | – | –
8 | A17D/R79T (antibody, human IgG1, kappa, V domains shown) VH: EVQLVESGGGLVQPGGSLRLSCSASGFTFSSFGMHWVRQAPGKGLEWVAYISSGSSTIYYGDTVKGRFTISRDNAKNSLFLQMSSLRAEDTAVYYCAREGGYYYGRSYYTMDYWGQGTTVTVSS VL: DVVMTQSPLSLPVTPGDPASISCRSSQSIVHSNGNTYLEWYLQKPGQSPKLLIYKVSNRFSGVPDRFSGSGSGTDFTLTISRVEAEDVGIYYCFQGSHVPPTFGPGTKLEIKR | – | binds | binds
9 | A17D/R79T_DI 8 (antibody, human IgG1, kappa, also called deimmunized variant 8 of A17D/R79T) heavy: not shown light: DVVMTQSPLSLPATPGDPASISCRSSQSIVHSNGNTYLEWYLQKPGQSPKLLIYKVSNRFSGVPDRFSGSGSGTDFTLTISRVDAEDVGIYYCFQGSHVPPTFGPGTKLEIKRTVAAPSVFIFPPSDEQLKSGTASVVCLLNNFYPREAKVQWKVDNALQSGNSQESVTEQDSKDSTYSLSSTLTLSKADYEKHKVYACEVTHQGLSSPVTKSFNRGEC | – | binds | binds
10 | A17D/R79T_DI 3 (antibody, human IgG1, kappa, also called deimmunized variant 3 of A17D/R79T) heavy: not shown light: DVVMTQSPLSLPATPGDPASISCRSSQSIVHSNGNTYLEWYLQKPGQSPKLLIYKVSNRFSGVPDRFSGSGSGTDFTLTIQRVEAEDVGIYYCFQGSHVPPTFGPGTKLEIKRTVAAPSVFIFPPSDEQLKSGTASVVCLLNNFYPREAKVQWKVDNALQSGNSQESVTEQDSKDSTYSLSSTLTLSKADYEKHKVYACEVTHQGLSSPVTKSFNRGEC | – | binds | binds
11 | A17D (antibody, human IgG1, kappa, V domains shown) VH: EVQLVESGGGLVQPGGSLRLSCSASGFTFSSFGMHWVRQAPGKGLEWVAYISSGSSTIYYGDTVKGRFTISRDNAKNSLFLQMSSLRAEDTAVYYCAREGGYYYGRSYYTMDYWGQGTTVTVSS VL: DVVMTQSPLSLPVTPGDPASISCRSSQSIVHSNGNTYLEWYLQKPGQSPKLLIYKVSNRFSGVPDRFSGSGSGTDFTLRISRVEAEDVGIYYCFQGSHVPPTFGPGTKLEIKR | – | binds | binds
12 | A17D/R79T_DI 7 (antibody, human IgG1, kappa, also called deimmunized variant 7 of A17D/R79T) heavy: not shown light: DVVMTQSPLSLPATPGDPASISCRSSQSIVHSNGNTYLEWYLQKPGQSPKLLIYKVSNRFSGVPDRFSGSGSGTDFTLTIQRVEAEDVGIYYCFQGSHVPPTFGPGTKLEIKRTVAAPSVFIFPPSDEQLKSGTASVVCLLNNFYPREAKVQWKVDNALQSGNSQESVTEQDSKDSTYSLSSTLTLSKADYEKHKVYACEVTHQGLSSPVTKSFNRGEC | – | binds | binds
13 | A17D/R79T_DI 1 (antibody, human IgG1, kappa, also called deimmunized variant 1 of A17D/R79T) heavy: not shown light: DVVMTQSPLSLPVTPGDPASVSCRSSQSIVHSNGNTYLEWYLQKPGQSPKLLIYKVSNRFSGVPDRFSGSGSGTDFTLTIQRVEAEDVGIYYCFQGSHVPPTFGPGTKLEIKRTVAAPSVFIFPPSDEQLKSGTASVVCLLNNFYPREAKVQWKVDNALQSGNSQESVTEQDSKDSTYSLSSTLTLSKADYEKHKVYACEVTHQGLSSPVTKSFNRGEC | – | binds | binds
